# Laboratory results: patent publication US20230310584A1 (published 2023)
# “And” between values parts separate entries of the source, which are not always exact repeats. Equal entries are not always repeated.
# B1: His-tagged CD64 (Acrobiosystems, FCA-H52H1) (receptor)
# chain: QVDTTKAVITLQPPWVSVFQEETVTLHCEVLHLPGSSSTQWFLNGTATQTSTPSYRITSASVNDSGEYRCQRGLSGRSDPIQLEIHRGWLLLQVSSRVFTEGEPLALRCHAWKDKLVYNVLYYRNGKAFKFFHWNSNLTILKTNISHNGTYHCSGMGKHRYTSAGISVTVKELFPAPVLNASVTSPLLEGNLVTLSCETKLLLQRPGLQLYFSFYMGSKTLRGRNTSSEYQILTARREDSGLYWCEAATEDGNVLKRSPELELQVLGLQLPTP
# Biological target: RBD-iFcv1 (SARS-CoV-2; human, 23 residues replaced …)
binder,measurement,value
B1,Kd,2.34 nM and 1.61 nM and 0.963 nM
same,kon,260000 M⁻¹ s⁻¹ and 189000 M⁻¹ s⁻¹ and 200000 M⁻¹ s⁻¹
